# Results as given in the supplement of paper PMC6755084.
# B1: F1*; the commonest letter at each place (parent)
# chain: GAGACCGCAACTGAAAAGTTGTTATCACTTGTCGTAAGACACTTTGGATGGGTTGAAGTTCTGCACGTAGAAGCAAAAGGC
# Variants of: B1
# Test: fraction ligated after 30 min (ligated reads / total reads); higher = more ligase activity
# Details: with F1*sub RNA substrate (template-directed ligation), 42 °C
# Description: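 Chip-synthesised pool of F1* ligase ribozyme variants (all single and double substitutions, single, double and triple deletions in the catalytic core and GAA bulge, plus designed variants) was transcribed with T7 and reacted as a pool with excess substrate F1*sub for 30 min at 42 C in 50 mM EPPS pH 8.5, 25 mM MgCl2. Ligated and unligated bands were separated by PAGE, barcoded by RT and deep sequenced; fraction ligated = ligated reads / total reads per variant, relative activity = FL / FL of wild type (0.826). Sequences are the DNA template of the ribozyme.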
row,Variant,fraction ligated
1,GAGACCGCAACTGAAAAGTTGTTATCACTAGTCGTAAAACACTTTGGATGGGTTGAAGTTCTGCACGTAGAAGCAAAAGGC [T30A G38A],0.813
2,GAGACCGCAACTGAAAAGTTGTTATCACTAGTCGTAATACACTTTGGATGGGTTGAAGTTCTGCACGTAGAAGCAAAAGGC [T30A G38T],0.832
3,GAGACCGCAACTGAAAAGTTGTTATCACTAGTCGTAACACACTTTGGATGGGTTGAAGTTCTGCACGTAGAAGCAAAAGGC [T30A G38C],0.795
4,GAGACCGCAACTGAAAAGTTGTTATCACTACTCGTAAGACACTTTGGATGGGTTGAAGTTCTGCACGTAGAAGCAAAAGGC [T30A G31C],0.784
5,GAGACCGCAACTGAAAAGTTGTTATCACTATTCGTAAGACACTTTGGATGGGTTGAAGTTCTGCACGTAGAAGCAAAAGGC [T30A G31T],0.831
6,GAGACCGCAACTGAAAAGTTGTTATCACTAATCGTAAGACACTTTGGATGGGTTGAAGTTCTGCACGTAGAAGCAAAAGGC [T30A G31A],0.842
7,GAGACCGCAACTGAAAAGTTGTTATCACGTGTCGTAAGACACTTCGGATGGGTTGAAGTTCTGCACGTAGAAGCAAAAGGC [T29G T45C],0.677
8,GAGACCGCAACTGAAAAGTTGTTATCACGTGTCGTAAGACACTTGGGATGGGTTGAAGTTCTGCACGTAGAAGCAAAAGGC [T29G T45G],0.267
9,GAGACCGCAACTGAAAAGTTGTTATCACGTGTCGTAAGACACTTAGGATGGGTTGAAGTTCTGCACGTAGAAGCAAAAGGC [T29G T45A],0.673
10,GAGACCGCAACTGAAAAGTTGTTATCACTAGTCGTAAGACACTTTGGATGGGTTGGAGTTCTGCACGTAGAAGCAAAAGGC [T30A A56G],0.797
11,GAGACCGCAACTGAAAAGTTGTTATCACTAGTCGTAAGACACTTTGGATGGGTTGCAGTTCTGCACGTAGAAGCAAAAGGC [T30A A56C],0.773
12,GAGACCGCAACTGAAAAGTTGTTATCACTAGTCGTAAGACACTTTGGATGGGTTGTAGTTCTGCACGTAGAAGCAAAAGGC [T30A A56T],0.81
13,GAGACCGCAACTGAAAAGTTGTTATCACGTGTCGCAAGACACTTTGGATGGGTTGAAGTTCTGCACGTAGAAGCAAAAGGC [T29G T35C],0.803
14,GAGACCGCAACTGAAAAGTTGTTATCACGTGTCGAAAGACACTTTGGATGGGTTGAAGTTCTGCACGTAGAAGCAAAAGGC [T29G T35A],0.83
15,GAGACCGCAACTGAAAAGTTGTTATCACGTGTCGGAAGACACTTTGGATGGGTTGAAGTTCTGCACGTAGAAGCAAAAGGC [T29G T35G],0.813
16,GAGACCGCAACTGAAAAGTTGTTATCACTAGTCGTAAGACACTTTGCATGGGTTGAAGTTCTGCACGTAGAAGCAAAAGGC [T30A G47C],0.128
17,GAGACCGCAACTGAAAAGTTGTTATCACTAGTCGTAAGACACTTTGTATGGGTTGAAGTTCTGCACGTAGAAGCAAAAGGC [T30A G47T],0.373
18,GAGACCGCAACTGAAAAGTTGTTATCACTAGTCGTAAGACACTTTGAATGGGTTGAAGTTCTGCACGTAGAAGCAAAAGGC [T30A G47A],0.793
19,GAGACCGCAACTGAAAAGTTGTTATCACGTGTCGTAAGACACATTGGATGGGTTGAAGTTCTGCACGTAGAAGCAAAAGGC [T29G T43A],0.826
20,GAGACCGCAACTGAAAAGTTGTTATCACGTGTCGTAAGACACCTTGGATGGGTTGAAGTTCTGCACGTAGAAGCAAAAGGC [T29G T43C],0.817
21,GAGACCGCAACTGAAAAGTTGTTATCACGTGTCGTAAGACACGTTGGATGGGTTGAAGTTCTGCACGTAGAAGCAAAAGGC [T29G T43G],0.777
22,GAGACCGCAACTGAAAAGTTGTTATCACTAGTCGTAAGGCACTTTGGATGGGTTGAAGTTCTGCACGTAGAAGCAAAAGGC [T30A A39G],0.805
23,GAGACCGCAACTGAAAAGTTGTTATCACTAGTCGTAAGTCACTTTGGATGGGTTGAAGTTCTGCACGTAGAAGCAAAAGGC [T30A A39T],0.81

row,Variant,fraction ligated
1,GAGACCGCAACTGAAAAGTTGTTATCACTAGTCGTAAGCCACTTTGGATGGGTTGAAGTTCTGCACGTAGAAGCAAAAGGC [T30A A39C],0.777
2,GAGACCGCAACTGAAAAGTTGTTATCACTAGTTGTAAGACACTTTGGATGGGTTGAAGTTCTGCACGTAGAAGCAAAAGGC [T30A C33T],0.849
3,GAGACCGCAACTGAAAAGTTGTTATCACTAGTGGTAAGACACTTTGGATGGGTTGAAGTTCTGCACGTAGAAGCAAAAGGC [T30A C33G],0.84
4,GAGACCGCAACTGAAAAGTTGTTATCACTAGTAGTAAGACACTTTGGATGGGTTGAAGTTCTGCACGTAGAAGCAAAAGGC [T30A C33A],0.847
5,GAGACCGCAACTGAAAAGTTGTTATCACTAGTCGTAAGACACTTTGGGTGGGTTGAAGTTCTGCACGTAGAAGCAAAAGGC [T30A A48G],0.806
6,GAGACCGCAACTGAAAAGTTGTTATCACTAGTCGTAAGACACTTTGGTTGGGTTGAAGTTCTGCACGTAGAAGCAAAAGGC [T30A A48T],0.671
7,GAGACCGCAACTGAAAAGTTGTTATCACTAGTCGTAAGACACTTTGGCTGGGTTGAAGTTCTGCACGTAGAAGCAAAAGGC [T30A A48C],0.741
8,GAGACCGCAACTGAAAAGTTGTTATCACTAGTCGTAGGACACTTTGGATGGGTTGAAGTTCTGCACGTAGAAGCAAAAGGC [T30A A37G],0.87
9,GAGACCGCAACTGAAAAGTTGTTATCACTAGTCGTATGACACTTTGGATGGGTTGAAGTTCTGCACGTAGAAGCAAAAGGC [T30A A37T],0.832
10,GAGACCGCAACTGAAAAGTTGTTATCACTAGTCGTACGACACTTTGGATGGGTTGAAGTTCTGCACGTAGAAGCAAAAGGC [T30A A37C],0.831
11,GAGACCGCAACTGAAAAGTTGTTATCACTAGTCGTAAGACACTTTGGATAGGTTGAAGTTCTGCACGTAGAAGCAAAAGGC [T30A G50A],0.22
12,GAGACCGCAACTGAAAAGTTGTTATCACTAGTCGTAAGACACTTTGGATCGGTTGAAGTTCTGCACGTAGAAGCAAAAGGC [T30A G50C],0.111
13,GAGACCGCAACTGAAAAGTTGTTATCACTAGTCGTAAGACACTTTGGATTGGTTGAAGTTCTGCACGTAGAAGCAAAAGGC [T30A G50T],0.57
14,GAGACCGCAACTGAAAAGTTGTTATCACGTGTCGTAAGACACTTTGGAGGGGTTGAAGTTCTGCACGTAGAAGCAAAAGGC [T29G T49G],0.77
15,GAGACCGCAACTGAAAAGTTGTTATCACGTGTCGTAAGACACTTTGGACGGGTTGAAGTTCTGCACGTAGAAGCAAAAGGC [T29G T49C],0.733
16,GAGACCGCAACTGAAAAGTTGTTATCACGTGTCGTAAGACACTTTGGAAGGGTTGAAGTTCTGCACGTAGAAGCAAAAGGC [T29G T49A],0.753
17,GAGACCGCAACTGAAAAGTTGTTATCACTAGTCGTAAGACACTTTGGATGGGTTGAGGTTCTGCACGTAGAAGCAAAAGGC [T30A A57G],0.837
18,GAGACCGCAACTGAAAAGTTGTTATCACTAGTCGTAAGACACTTTGGATGGGTTGACGTTCTGCACGTAGAAGCAAAAGGC [T30A A57C],0.778
19,GAGACCGCAACTGAAAAGTTGTTATCACTAGTCGTAAGACACTTTGGATGGGTTGATGTTCTGCACGTAGAAGCAAAAGGC [T30A A57T],0.8
20,GAGACCGCAACTGAAAAGTTGTTATCACTAGTCATAAGACACTTTGGATGGGTTGAAGTTCTGCACGTAGAAGCAAAAGGC [T30A G34A],0.833
21,GAGACCGCAACTGAAAAGTTGTTATCACTAGTCTTAAGACACTTTGGATGGGTTGAAGTTCTGCACGTAGAAGCAAAAGGC [T30A G34T],0.802
22,GAGACCGCAACTGAAAAGTTGTTATCACTAGTCCTAAGACACTTTGGATGGGTTGAAGTTCTGCACGTAGAAGCAAAAGGC [T30A G34C],0.781
23,GAGACCGCAACTGAAAAGTTGTTATCACTAGTCGTGAGACACTTTGGATGGGTTGAAGTTCTGCACGTAGAAGCAAAAGGC [T30A A36G],0.832

row,Variant,fraction ligated
1,GAGACCGCAACTGAAAAGTTGTTATCACTAGTCGTCAGACACTTTGGATGGGTTGAAGTTCTGCACGTAGAAGCAAAAGGC [T30A A36C],0.854
2,GAGACCGCAACTGAAAAGTTGTTATCACTAGTCGTTAGACACTTTGGATGGGTTGAAGTTCTGCACGTAGAAGCAAAAGGC [T30A A36T],0.823
3,GAGACCGCAACTGAAAAGTTGTTATCACTAGTCGTAAGACACTTTGGATGGGTTGAAGTTCTGCACGTAGAAGCAAAAGGC [T30A],0.855
4,GAGACCGCAACTGAAAAGTTGTTATCACTAGTCGTAAGACCCTTTGGATGGGTTGAAGTTCTGCACGTAGAAGCAAAAGGC [T30A A41C],0.797
5,GAGACCGCAACTGAAAAGTTGTTATCACTAGTCGTAAGACTCTTTGGATGGGTTGAAGTTCTGCACGTAGAAGCAAAAGGC [T30A A41T],0.859
6,GAGACCGCAACTGAAAAGTTGTTATCACTAGTCGTAAGACGCTTTGGATGGGTTGAAGTTCTGCACGTAGAAGCAAAAGGC [T30A A41G],0.798
7,GAGACCGCAACTGAAAAGTTGTTATCACGTGGCGTAAGACACTTTGGATGGGTTGAAGTTCTGCACGTAGAAGCAAAAGGC [T29G T32G],0.832
8,GAGACCGCAACTGAAAAGTTGTTATCACGTGCCGTAAGACACTTTGGATGGGTTGAAGTTCTGCACGTAGAAGCAAAAGGC [T29G T32C],0.809
9,GAGACCGCAACTGAAAAGTTGTTATCACTAGTCGTAAGACACTTTGGATGGGTTAAAGTTCTGCACGTAGAAGCAAAAGGC [T30A G55A],0.816
10,GAGACCGCAACTGAAAAGTTGTTATCACTAGTCGTAAGACACTTTGGATGGGTTCAAGTTCTGCACGTAGAAGCAAAAGGC [T30A G55C],0.741
11,GAGACCGCAACTGAAAAGTTGTTATCACGTGTCGTAAGACACTATGGATGGGTTGAAGTTCTGCACGTAGAAGCAAAAGGC [T29G T44A],0.848
12,GAGACCGCAACTGAAAAGTTGTTATCACGTGTCGTAAGACACTGTGGATGGGTTGAAGTTCTGCACGTAGAAGCAAAAGGC [T29G T44G],0.791
13,GAGACCGCAACTGAAAAGTTGTTATCACGTGTCGTAAGACACTCTGGATGGGTTGAAGTTCTGCACGTAGAAGCAAAAGGC [T29G T44C],0.795
14,GAGACCGCAACTGAAAAGTTGTTATCACTAGTCGTAAGAGACTTTGGATGGGTTGAAGTTCTGCACGTAGAAGCAAAAGGC [T30A C40G],0.803
15,GAGACCGCAACTGAAAAGTTGTTATCACTAGTCGTAAGATACTTTGGATGGGTTGAAGTTCTGCACGTAGAAGCAAAAGGC [T30A C40T],0.825
16,GAGACCGCAACTGAAAAGTTGTTATCACTAGTCGTAAGAAACTTTGGATGGGTTGAAGTTCTGCACGTAGAAGCAAAAGGC [T30A C40A],0.845
17,GAGACCGCAACTGAAAAGTTGTTATCACTAGTCGTAAGACACTTTAGATGGGTTGAAGTTCTGCACGTAGAAGCAAAAGGC [T30A G46A],0.809
18,GAGACCGCAACTGAAAAGTTGTTATCACTAGTCGTAAGACACTTTTGATGGGTTGAAGTTCTGCACGTAGAAGCAAAAGGC [T30A G46T],0.805
19,GAGACCGCAACTGAAAAGTTGTTATCACTAGTCGTAAGACACTTTCGATGGGTTGAAGTTCTGCACGTAGAAGCAAAAGGC [T30A G46C],0.795
20,GAGACCGCAACTGAAAAGTTGTTATCACTAGTCGTAAGACATTTTGGATGGGTTGAAGTTCTGCACGTAGAAGCAAAAGGC [T30A C42T],0.852
21,GAGACCGCAACTGAAAAGTTGTTATCACTAGTCGTAAGACAGTTTGGATGGGTTGAAGTTCTGCACGTAGAAGCAAAAGGC [T30A C42G],0.847
22,GAGACCGCAACTGAAAAGTTGTTATCACTAGTCGTAAGACAATTTGGATGGGTTGAAGTTCTGCACGTAGAAGCAAAAGGC [T30A C42A],0.815
